pKd: −log10 of the molar value.

In the test the target is fluorescein labeled GST-PKM1 (UniProt P14618). As to the kind of experiment: MST; 40 nM fluorescein-labelled PKM1 with salt-washed ribosomes titrated from 0 to about 1.5 μM in PBS + 5 mM MgCl2, room temperature; three batches of ribosomes fitted globally to a 1:1 model; binding not fully saturated.
Sequence of UniProt P14618 (P14618 other isoform, or with tags, fused parts or gaps): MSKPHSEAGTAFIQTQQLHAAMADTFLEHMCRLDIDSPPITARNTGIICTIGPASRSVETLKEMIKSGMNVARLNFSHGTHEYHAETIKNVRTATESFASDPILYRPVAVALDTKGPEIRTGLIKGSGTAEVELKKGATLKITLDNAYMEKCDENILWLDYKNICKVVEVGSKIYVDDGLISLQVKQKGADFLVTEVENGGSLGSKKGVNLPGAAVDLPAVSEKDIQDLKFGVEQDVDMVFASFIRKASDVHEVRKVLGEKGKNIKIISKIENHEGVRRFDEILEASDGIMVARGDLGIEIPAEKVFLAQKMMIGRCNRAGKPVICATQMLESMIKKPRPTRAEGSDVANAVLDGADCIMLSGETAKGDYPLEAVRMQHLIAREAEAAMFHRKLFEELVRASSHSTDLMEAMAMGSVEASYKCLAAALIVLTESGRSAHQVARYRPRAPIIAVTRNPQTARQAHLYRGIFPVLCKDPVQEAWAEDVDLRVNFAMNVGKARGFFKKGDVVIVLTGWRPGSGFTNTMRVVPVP

Consider “salt-washed ribosomes isolated from HEK293F cells (from UniProt P36578 1-427) (complex)”, for which the pKd was 6.05.

The values above are taken from paper PMC10325899.
